pKd: −log10 of the molar value.
What was measured:
Mom = target: T1, Mom (Escherichia phage Mu, UniProt P06018); experiment: microscale thermophoresis, fluorescently labelled Mom; type: binding
T1 sequence (P06018 12-241): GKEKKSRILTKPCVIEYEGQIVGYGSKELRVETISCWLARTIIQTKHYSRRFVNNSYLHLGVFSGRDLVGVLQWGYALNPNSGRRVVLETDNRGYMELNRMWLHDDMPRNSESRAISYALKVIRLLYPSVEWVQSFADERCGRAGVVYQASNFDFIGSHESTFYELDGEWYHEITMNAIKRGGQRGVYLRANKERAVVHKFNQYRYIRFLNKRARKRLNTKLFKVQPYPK

[1] = target: Mom (bacteriophage Mu), untagged, purified (bacteriophage Mu) (UniProt P06018); experiment: cross-linking
[2] = target: Mom (bacteriophage Mu), untagged, purified (bacteriophage Mu) (UniProt P06018); experiment: SEC

Compound	pKd (Mom)	stoichiometry N [1]	stoichiometry N [2]
CC(=O)SCCNC(=O)CCNC(=O)[C@H](O)C(C)(C)COP(=O)(O)OP(=O)(O)OC[C@H]1O[C@@H](n2cnc3c(N)ncnc32)[C@H](O)[C@@H]1OP(=O)(O)O [acetyl CoA]	~4.31	–	–
Mom (bacteriophage Mu), untagged, purified (from UniProt P06018 2-241) (enzyme)	–	2	2
